Measurements taken from article PMC6911004, “Fragment-based screening identifies molecules targeting the substrate-binding ankyrin repeat domains of tankyrase” (Scientific Reports, 2019).

Target: T1, TNKS2 ARC5 (Homo sapiens, UniProt Q9H2K2)
T1 construct: followed by TNKS2 ARC5 (1 μL, 100 μM stock); His6-GST; made in house; host or cells: E. coli
T1 sequence (Q9H2K2 whole entry, looked up): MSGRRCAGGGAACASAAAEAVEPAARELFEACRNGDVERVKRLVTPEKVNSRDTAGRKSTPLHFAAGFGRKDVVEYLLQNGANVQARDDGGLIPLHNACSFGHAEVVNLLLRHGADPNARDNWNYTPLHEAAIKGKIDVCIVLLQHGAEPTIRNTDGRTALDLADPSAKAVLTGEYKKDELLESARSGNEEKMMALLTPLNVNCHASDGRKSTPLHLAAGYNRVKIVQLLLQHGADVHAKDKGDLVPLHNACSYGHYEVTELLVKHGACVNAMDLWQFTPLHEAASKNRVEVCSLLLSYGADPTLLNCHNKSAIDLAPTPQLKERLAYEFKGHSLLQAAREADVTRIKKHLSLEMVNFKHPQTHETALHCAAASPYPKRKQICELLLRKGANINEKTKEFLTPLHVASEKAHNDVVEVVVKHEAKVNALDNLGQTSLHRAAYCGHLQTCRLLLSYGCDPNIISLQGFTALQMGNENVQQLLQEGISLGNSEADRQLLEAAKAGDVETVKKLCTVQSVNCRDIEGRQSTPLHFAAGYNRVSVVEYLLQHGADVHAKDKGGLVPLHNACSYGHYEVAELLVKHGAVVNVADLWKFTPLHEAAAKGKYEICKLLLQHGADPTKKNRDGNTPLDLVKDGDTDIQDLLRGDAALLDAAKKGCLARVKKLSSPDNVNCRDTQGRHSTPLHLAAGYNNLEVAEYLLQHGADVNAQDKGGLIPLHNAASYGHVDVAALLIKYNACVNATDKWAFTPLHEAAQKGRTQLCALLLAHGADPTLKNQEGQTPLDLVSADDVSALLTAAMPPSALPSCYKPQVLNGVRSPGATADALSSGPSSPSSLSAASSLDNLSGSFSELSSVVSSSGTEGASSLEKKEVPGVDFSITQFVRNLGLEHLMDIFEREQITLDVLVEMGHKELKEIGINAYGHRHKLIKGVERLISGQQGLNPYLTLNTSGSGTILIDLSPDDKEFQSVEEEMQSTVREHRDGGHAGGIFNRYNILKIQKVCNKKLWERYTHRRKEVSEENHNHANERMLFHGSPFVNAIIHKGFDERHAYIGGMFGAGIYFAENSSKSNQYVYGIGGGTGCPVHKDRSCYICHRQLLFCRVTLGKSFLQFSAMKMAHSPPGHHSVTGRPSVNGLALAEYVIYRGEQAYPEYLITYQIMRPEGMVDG
Assay: Differential scanning fluorimetry (DSF, thermal shift)
Type: binding
Details: ARC 20 μM + 3BP2 TBM peptide 200 μM, inflection point method
Protocol: Therefore, we chose TNKS2 ARC5 for screening by DSF, anticipating the largest signal window for measuring changes in Tm upon fragment binding.
We screened 1869 compounds in duplicate at a concentration of 500 μM, which we considered a reasonable compromise between having a sufficiently high concentration to identify weak binders while minimising the likelihood of false positives through fragment precipitation/aggregation and non-specific binding. The final DMSO concentration was 5%. We calculated melting temperatures using both the inflection point and the maximum peak of first derivative data methods. Both methods generally agreed, unless the melt curve was biphasic or misshapen, with slightly lower variability for the […] Tm determination method (see Materials and Methods for experimental and analysis details).
We determined the melting temperature for the unbound ARC (Tm, 0) from the mean of 12 reference melting curves per plate, with 5% DMSO only. We calculated the change in melting temperature (ΔTm) by subtracting the mean Tm, 0 from Tm, compound. We tested compounds in duplicate, defining fragments as hits if they conferred a ΔTm outside two standard deviations (2σ) from the mean, in one or both replicates. To check for consistency between plates, we ran triplicate peptide controls; however, we excluded peptide ΔTm values from the calculation of the mean ΔTm to avoid skewing the results. We observed mean ΔTm values (IP/1st derivative methods) of −0.127/−0.331 °C and σ as 0.997/1.19 °C. A hit cut-off of 2σ gave absolute shifts of +1.87/+2.05 °C for compounds that stabilised and −2.13/−2.71 °C for compounds that destabilised the ARC (Fig. 2B).
For the screen, a C1000 thermal cycler (Bio-Rad) was used to record melt curves. SYPRO Orange was purchased as a 5000 × stock in DMSO from Sigma Aldrich. The ICR fragment library was available as 100 mM stocks in DMSO, and dispensed (25 nL) using an ECHO acoustic liquid handling system into white 384-well PCR plates (Framestar, 4titude). Wells were backfilled with DMSO (225 nL). Buffer (2.75 μL, 25 mM HEPES-NaOH pH 7.5, 100 mM NaCl, 2 mM TCEP) was added, followed by TNKS2 ARC5 (1 μL, 100 μM stock) and then SYPRO orange dye (1 μL, 25×). The plate was centrifuged after the addition of each reagent (1 min, 1000 × g). Final assay concentrations were as follows: TNKS2 ARC5 (20 μM); fragment (500 μM); SYPRO Orange dye (5×); DMSO (5% v/v) in a total volume of 5 μL. Peptide control wells (3BP2 TBM 16-mer, 200 μM, sequence LPHLQRSPPDGQSFRSW with C-terminal tryptophan added for photometric concentration measurements, the N-terminus acetylated and the C-terminus amide-capped) were plated in triplicate, and there were 12 blank wells per plate, with DMSO only (250 nL, 5% v/v). Melt curves were recorded from 20–95 °C, with the temperature ramped by 0.5 °C every 15 s. Data were analysed using Vortex (Dotmatics) software and melting temperatures calculated from both the inflection point and the maximum peak of 1st-derivative data. Data points were excluded if the melt curve was poor, i.e., if there was no fluorescence signal above baseline, high fluorescence intensity throughout, or if the melt curve was shallow (<1000 rfu difference between baseline and peak maximum). The unbound melting temperature was determined from the mean of 12 reference melting curves, with 5% DMSO only. The change in melting temperature (ΔTm) was calculated by subtracting the mean Tm, 0 from Tm, compound. Compounds were tested in duplicate, and fragments were defined as hits if they gave a ΔTm outwith 2 σ from the mean in one or both replicates.
For the experiment shown in Fig. 2A, ARC and 3BP2 TBM peptide concentrations were 20 and 200 μM, respectively, in 50 mM HEPES-NaOH pH 7.5, 100 mM NaCl, 2 mM TCEP and a total volume of 25 μL. SYPRO Orange was added at 5×. Data were recorded from 4–95 °C, with the temperature ramped by 0.5 °C every 15 s, using a CFX384 thermal cycler (Bio-Rad). […]

ΔTm: 4.14 °C
Sequence: LPHLQRSPPDGQSFRSW [3BP2 16-mer peptide, 16-mer TBM peptide derived from 3BP2, W added for A280, N-terminus acetylated, C-terminus amide-capped; positive control, reference compound]
